Measurements from article doi:10.1101/2024.07.19.604350.

Tests used:
[1] = target: 9C2 (Vγ5Vδ1) γδ TCR/CD3 complex, full length (human) (UniProt B7Z8K6); assay: cryo-EM structure
[2] = target: G115 (Vγ9Vδ2) γδ TCR/CD3 complex, full length (human) (UniProt A0JD36); assay: cryo-EM structure
Sequence of UniProt A0JD36 (A0JD36 whole entry, looked up, stated change not applied, one chain of several): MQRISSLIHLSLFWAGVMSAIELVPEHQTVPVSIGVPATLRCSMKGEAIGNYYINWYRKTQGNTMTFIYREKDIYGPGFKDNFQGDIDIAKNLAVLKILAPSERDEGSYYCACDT

| stoichiometry N [1] | stoichiometry N [2] | Substance |
| --- | --- | --- |
| 2 |  | 9C2 (Vγ5Vδ1) γδ TCR/CD3 complex, full length (from UniProt B7Z8K6;P0CF51;P07766;P09693;P04234;P20963) |
|  | 2 | OKT3 Fab |
